Positions count from the first letter of the chain named. Each block holds one binder with its values, some of them ahead of it.
Target: Human IgG
Test: method not given

Ka: > 4e+09 M⁻¹
B1: IgG-Fc-15 (VHH)
VHH: QVQLQESGGGLVQAGGSLRLSCAVSGRGFSTYAMGWFRQAPGKEREFVGSANWKSGSIYVADSVKGRFTISNDNAQNTVYLQMSSLKPEDTAVYYCVARSFGTGQWDYWGQGTQVTVSS

Ka: > 4e+09 M⁻¹
B2: IgG-Fc-13 (VHH)
VHH: QVQLQESGGGLVQAGGSLRLSCAASGDTFSTYAMGWFRQAPGKEREFVGRIVRGTESTYLIDSVKGRFAISRDNAQNTVYLQMTSLKPEDTAVYFCVARSFGAGQWDYWGQGTQVTVSS

Ka: > 4e+09 M⁻¹
B3: IgG-Fc-14 (VHH)
VHH: QVQLQESGGGLVQTGGSLRLSCSASGGTFETYAMGWFRQAPGKEREFVGSTNWKSERTYVADSVKGRFTISRDNGQYTAYLQMTSLKPEDTAVYFCVARSFGTGQWDYWGQGTQVTVSS

Ka: > 4e+09 M⁻¹
B4: IgG-Fc-11 (VHH)
VHH: QVQLQESGGGLVQAGGSLRLSCAVSGRTFSTYAMGWFRQAPGKEREFVGSANWKSGSTYLVDSVKGRFTISGDNAHDTVHLQMTSLKPEDTGVYFCVARSFGTGQWDYWGQGTQVTVSS

Ka: > 4e+09 M⁻¹
B5: IgG-Fc-12 (VHH)
VHH: B1 VHH with G28T, A51I, W53F, V60L, N72G, V79A, S84T, Y95L

— patent US20150307627A1
